Assay results: patent publication US20180030118A1 (EMERGENT BIOSOLUTIONS CANADA, published 2018)
Substitutions are numbered along the chain they refer to.

Key:
MARV Musoke GPe [1] = biological target: T1, MARV Musoke GPe (Marburg virus, strain Musoke, UniProt P35253 19-648); experiment: ELISA, GP coated 200 ng/well, mAb at 2 ug/mL
T1 construct: extracellular domain; also called Marburg GP (Musoke) ectodomain
T1 sequence: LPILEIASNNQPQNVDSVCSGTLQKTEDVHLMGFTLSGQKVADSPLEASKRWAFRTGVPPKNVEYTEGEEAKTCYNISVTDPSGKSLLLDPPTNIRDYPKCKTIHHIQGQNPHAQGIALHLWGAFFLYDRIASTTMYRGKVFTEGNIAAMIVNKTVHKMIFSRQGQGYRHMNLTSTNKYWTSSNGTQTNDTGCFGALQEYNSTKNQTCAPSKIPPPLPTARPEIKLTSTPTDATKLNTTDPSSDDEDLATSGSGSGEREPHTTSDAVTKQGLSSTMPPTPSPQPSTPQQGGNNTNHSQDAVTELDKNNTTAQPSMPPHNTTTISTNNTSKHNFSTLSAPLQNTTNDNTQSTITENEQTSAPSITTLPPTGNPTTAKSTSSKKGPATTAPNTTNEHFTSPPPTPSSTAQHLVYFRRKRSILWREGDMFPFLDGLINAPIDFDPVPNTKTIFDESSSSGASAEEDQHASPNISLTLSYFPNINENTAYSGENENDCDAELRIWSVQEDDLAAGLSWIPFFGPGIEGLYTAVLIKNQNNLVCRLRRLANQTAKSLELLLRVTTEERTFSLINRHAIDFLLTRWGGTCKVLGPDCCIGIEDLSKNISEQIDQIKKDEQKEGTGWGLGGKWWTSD

MARV Ravn GPe = biological target: T2, MARV Ravn GPe (Marburg virus, strain Ravn, UniProt Q1PDC7 19-648); experiment: ELISA, GP coated 200 ng/well, mAb at 2 ug/mL
T2 construct: extracellular domain; also called Marburg GP (Ravn) ectodomain
T2 sequence: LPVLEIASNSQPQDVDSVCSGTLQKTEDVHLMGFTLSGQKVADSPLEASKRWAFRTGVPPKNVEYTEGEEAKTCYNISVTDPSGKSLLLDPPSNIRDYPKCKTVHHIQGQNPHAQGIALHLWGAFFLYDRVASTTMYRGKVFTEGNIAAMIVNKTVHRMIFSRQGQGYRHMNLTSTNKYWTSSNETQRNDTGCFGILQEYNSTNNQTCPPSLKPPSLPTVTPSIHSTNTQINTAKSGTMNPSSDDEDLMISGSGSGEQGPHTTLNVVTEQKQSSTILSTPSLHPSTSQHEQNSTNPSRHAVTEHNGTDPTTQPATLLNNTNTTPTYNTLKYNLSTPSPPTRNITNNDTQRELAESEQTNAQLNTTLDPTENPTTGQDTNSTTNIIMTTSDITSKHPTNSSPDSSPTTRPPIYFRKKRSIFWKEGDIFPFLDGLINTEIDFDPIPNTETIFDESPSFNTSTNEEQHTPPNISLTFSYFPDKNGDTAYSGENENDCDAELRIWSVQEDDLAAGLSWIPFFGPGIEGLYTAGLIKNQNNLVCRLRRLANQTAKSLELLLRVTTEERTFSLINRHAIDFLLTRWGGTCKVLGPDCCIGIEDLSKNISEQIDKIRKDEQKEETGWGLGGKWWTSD

MARV Angola GPe [2] = biological target: T3, MARV Angola GPe (Marburg virus, strain Angola, UniProt Q1PD50 19-648); experiment: ELISA, GP coated 200 ng/well, mAb at 2 ug/mL
T3 construct: extracellular domain; also called Marburg GP (Angola) ectodomain
T3 sequence: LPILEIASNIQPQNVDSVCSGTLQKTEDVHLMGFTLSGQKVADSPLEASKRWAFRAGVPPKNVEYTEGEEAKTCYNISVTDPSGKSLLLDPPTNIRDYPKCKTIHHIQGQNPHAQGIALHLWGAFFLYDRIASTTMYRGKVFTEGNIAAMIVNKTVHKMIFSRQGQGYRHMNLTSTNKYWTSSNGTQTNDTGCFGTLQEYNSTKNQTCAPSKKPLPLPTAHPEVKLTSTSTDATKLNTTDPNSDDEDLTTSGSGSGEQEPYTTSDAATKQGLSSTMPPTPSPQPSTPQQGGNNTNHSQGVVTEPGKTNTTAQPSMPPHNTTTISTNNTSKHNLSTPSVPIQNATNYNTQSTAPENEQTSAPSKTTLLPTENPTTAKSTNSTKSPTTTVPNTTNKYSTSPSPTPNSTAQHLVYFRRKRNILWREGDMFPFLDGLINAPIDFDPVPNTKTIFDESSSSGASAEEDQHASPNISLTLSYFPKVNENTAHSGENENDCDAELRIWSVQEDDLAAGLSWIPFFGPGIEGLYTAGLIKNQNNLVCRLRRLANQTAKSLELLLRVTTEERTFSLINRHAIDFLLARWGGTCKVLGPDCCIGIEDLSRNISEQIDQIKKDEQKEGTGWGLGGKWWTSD

MARV Musoke GPe [3] = biological target: T1, MARV Musoke GPe; experiment: ELISA on coated GPe (200 ng/well)
MARV Angola GPe [4] = biological target: T3, MARV Angola GPe; experiment: ELISA on coated GPe (200 ng/well)

B1: huCAN40G1 (antibody, V domains shown)
VH: EVQLQQSGPEVKKPGASVKVSCRTSGYTFTEYTIHWVKQAPGKGLEWIGGINPNHGGTLYNQKFKGRVTLTVDKSSSTAYMELSRLRSDDTAVYYCARFTYDYWGQGTLVTVSS
VL: DIVLTQSPASLAVSLGERATISCKASQSVDHDGDSYMNWYQQKPGQPPKLLIYATSNLESGIPARFSGSGSGTDFTLTISSLQAEDVATYYCQQSYEVPLTFGAGTKLEIK
notes: also called humanized CAN40G1
MARV Musoke GPe [1]
  OD405 @ 30 min: 2.73 OD405
MARV Ravn GPe
  OD405 @ 30 min: 2.75 OD405
MARV Angola GPe [2]
  OD405 @ 30 min: 3.83 OD405

B2: muCAN40G1 (antibody, V domains shown)
VH: EVQLQQSGPELVKPGASVKISCRTSGYTFTEYTIHWVKQSRGKSLEWIGGINPNHGGTLYNQKFKVKATLTVDKSSSTAYMELRSLTSEDSAVYYCARFTYDYWGQGTTLTVSS
VL: B1 VL with E17Q, T20S, T78N, S80H, S81P, L82V, Q83E, A84E, V87A, I110L
notes: also called murine CAN40G1
MARV Musoke GPe [1]
  OD405 @ 30 min: 0.536 OD405
MARV Ravn GPe
  OD405 @ 30 min: 0.504 OD405
MARV Angola GPe [2]
  OD405 @ 30 min: 0.857 OD405

B3: huCAN54G2 (antibody, V domains shown)
VH: QVQLQQSGTEVKKPGASVKVSCKASGYDFTNFWLGWIRQAPGQGLEWIGDIYPGGDNTYYNEKFKGRVTLTADKSSNTAYMELSSLRSEDTAVYFCFMILYTLDYWGQGTLVTVSS
VL: DVVMTQTPLTLPVTLGQPASISCTSSQSLLNSDGETYLNWLLQRPGQSPKRLIHLVSKLDSGVPDRFSGSGSGTDFTLKISRVEAEDVGVYYCWQGTHFPWTFGGGTKVEIK
notes: also called humanized CAN54G2
MARV Musoke GPe [1]
  OD405 @ 30 min: 0.908 OD405
MARV Ravn GPe
  OD405 @ 30 min: 0.89 OD405
MARV Angola GPe [2]
  OD405 @ 30 min: 0.502 OD405

B4: muCAN30G5 (antibody, V domains shown)
VH: EVQLVESGGGLVQPKGSLKLSCAASGFAFNSYAMHWVCQAPGKGLEWVARIRIKSGNYATSYAGSVTDRFTVSRDDSQNLFYLQMNNLKTEDTAMYYCVREWEGAMDYWGQGTSVTVSS
VL: DIVLTQSPLSLPVSLGDQASISCRSSQSLVHSNGNTYLHWYLQKPGQSPNLLIYKVSNRFSGVPDRFSGSGSGTDFTLKISRVEAEDLGVYFCSQSTHVPWTFGGGTKLEIK
notes: also called murine CAN30G5
MARV Musoke GPe [3]
  binding result: no binding
MARV Angola GPe [4]
  binding result: no binding
MARV Ravn GPe
  OD405 @ 30 min: 0.16 OD405

B5: huCAN30G5 (antibody, V domains shown)
VH: B4 VH with K15G, C38R, P41S, T67K, D68G, Q78K, L80T, N87S, S114L
VL: B4 VL with S14T, D17Q, Q18P, L42Q, K44R, N50R, L88V, F92Y, L109V
notes: also called humanized CAN30G5
MARV Musoke GPe [3]
  binding result: no binding
MARV Angola GPe [4]
  binding result: no binding
MARV Ravn GPe
  OD405 @ 30 min: 2.74 OD405

B6: muCAN54G2 (antibody, V domains shown)
VH: QVQLQQSGTELVRPGTSVKISCKASGYDFTNFWLGWIKQRPGHGLEWIGDIYPGGDNTYYNEKFKGKVTLTADKSSNTAYMQFSSLTSEDSAVYFCFMILYTLDYWGQGTSVTVSS
VL: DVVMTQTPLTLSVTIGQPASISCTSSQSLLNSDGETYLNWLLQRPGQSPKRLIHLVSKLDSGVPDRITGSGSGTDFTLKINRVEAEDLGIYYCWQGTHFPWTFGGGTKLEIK
notes: also called murine CAN54G2
MARV Musoke GPe [1]
  OD405 @ 30 min: 0.185 OD405
MARV Ravn GPe
  OD405 @ 30 min: 0.16 OD405
MARV Angola GPe [2]
  OD405 @ 30 min: 0.15 OD405
